Article doi:10.1101/2025.07.29.667502, “Single-Molecule FRET Reveals Two T4 Phage MR Complex Exonuclease States Regulated by the Mre11 Dimer Interface” (bioRxiv, 2025)

Molecular target: T1, T4 Rad50 (wild type) (bacteriophage T4, UniProt P04522 1-560)
T1 construct: Rad50 (gp46) of bacteriophage T4; the introduction says that the T4 complex is purified without truncation of Rad50's coiled-coil; also called WT Rad50; gp46; source: E. coli BL21 (DE3), purified (nickel column)
T1 sequence (looked up): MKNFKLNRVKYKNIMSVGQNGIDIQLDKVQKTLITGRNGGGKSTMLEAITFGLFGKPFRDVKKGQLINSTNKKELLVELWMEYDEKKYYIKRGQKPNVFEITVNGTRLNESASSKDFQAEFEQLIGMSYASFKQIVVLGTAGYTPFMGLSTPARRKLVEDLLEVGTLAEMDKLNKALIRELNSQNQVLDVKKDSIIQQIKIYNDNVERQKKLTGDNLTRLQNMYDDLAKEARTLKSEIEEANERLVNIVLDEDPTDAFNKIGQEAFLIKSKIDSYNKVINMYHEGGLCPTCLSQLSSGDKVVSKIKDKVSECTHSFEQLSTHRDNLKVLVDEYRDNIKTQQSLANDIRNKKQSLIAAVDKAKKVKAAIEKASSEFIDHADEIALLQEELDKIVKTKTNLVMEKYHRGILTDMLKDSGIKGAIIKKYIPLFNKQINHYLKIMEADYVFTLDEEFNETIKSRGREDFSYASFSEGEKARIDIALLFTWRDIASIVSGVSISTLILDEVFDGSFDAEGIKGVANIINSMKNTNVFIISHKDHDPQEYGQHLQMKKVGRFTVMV
Assay: negative-stain EM; WT T4-MR complex with ATPγS, in the absence of DNA
Conditions: both partners purified

B1: T4 Mre11 (wild type) (enzyme, bacteriophage T4, UniProt P04521 1-339, looked up)
chain: MKILNLGDWHLGVKADDEWIRGIQIDGIKQAIEYSKKNGITTWIQYGDIFDVRKAITHKTMEFAREIVQTLDDAGITLHTIVGNHDLHYKNVMHPNASTELLAKYPNVKVYDKPTTVDFDGCLIDLIPWMCEENTGEILEHIKTSSASFCVGHWELNGFYFYKGMKSHGLEPDFLKTYKEVWSGHFHTISEAANVRYIGTPWTLTAGDENDPRGFWMFDTETERTEFIPNNTTWHRRIHYPFKGKIDYKDFTNLSVRVIVTEVDKNLTKFESELEKVVHSLRVVSKIDNSVESDDSEEVEVQSLQTLMEEYINAIPDITDSDREALIQYANQLYVEATQ
notes: Mre11 (gp47) of bacteriophage T4; Used together with WT Rad50 as the WT-MR complex; also called WT Mre11; gp47; source: E. coli BL21 (DE3), purified (chitin column)
B1: binds.
